Values of other authors in US5389611A, “Lactoferrin hydrolyzate for use as an antibacterial agent and as a tyrosinase inhibition agent” (priority 1990, dated 1995).
Where two headings read alike, the source gives them in different places.

Legend:
[1] = Ford et al 1977
[2] = test system: coliform bacillus (Escherichia coli), staphylococcus and other enterobacteria; details: Nonnecke and Smith 1984

## lactoferrin
[1]; heating at 62.5° C. for 30 minutes
  antibacterial activity after heating: almost completely suppressed
[1]; heating at 70° C. for 15 minutes
  antibacterial activity after heating: complete deactivation
[2]
  concentration having antibacterial activity: 0.5 to 30 mg/mL
